This assay addresses purified FMNL2 N terminus (FMNL2N, aa 2-379) (human (from the printed UniProt …, UniProt Q96PY5-3 2-379)). Kind of assay: ITC. (In general: Isothermal titration calorimetry measures the heat released or taken up as one component is titrated into another.)

Chain of purified FMNL2 N terminus (FMNL2N, aa 2-379) (human (Q96PY5 2-379): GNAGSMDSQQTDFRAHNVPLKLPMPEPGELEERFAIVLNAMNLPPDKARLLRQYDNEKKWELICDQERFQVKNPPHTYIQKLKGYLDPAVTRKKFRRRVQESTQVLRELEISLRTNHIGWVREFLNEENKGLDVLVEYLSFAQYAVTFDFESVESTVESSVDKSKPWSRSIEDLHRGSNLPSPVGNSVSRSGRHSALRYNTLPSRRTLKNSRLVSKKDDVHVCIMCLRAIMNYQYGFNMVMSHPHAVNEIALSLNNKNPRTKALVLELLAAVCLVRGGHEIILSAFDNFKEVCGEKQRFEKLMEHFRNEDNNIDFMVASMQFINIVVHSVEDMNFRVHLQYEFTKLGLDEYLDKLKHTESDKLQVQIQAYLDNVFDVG

B1: Cdc42 (nucleotide-loaded, for ITC) (natural protein)
chain: not shown
Consider B1, for which binding was put at a Kd of 3.13 ± 0.38 µM and the dH was -5.33 ± 0.16 kcal/mol.
